Here are results for one molecule from article PMC5823934, “EGF receptor kinase suppresses ciliogenesis through activation of USP8 deubiquitinase” (Nature Communications, 2018).

The target of the test is T1, GST-USP8 (human, UniProt P40818 1-1118).
T1 construct: USP8 deubiquitinase, human cDNA FLJ76940 from the Human Gene and Protein Database, inserted in frame to GST in pGEX-6P-3 (BamHI/XhoI); Wild type; also called bacterially purified GST-USP8; source: E. coli BL21 (DE3), purified (glutathione-sepharose 4B)
T1 sequence (looked up): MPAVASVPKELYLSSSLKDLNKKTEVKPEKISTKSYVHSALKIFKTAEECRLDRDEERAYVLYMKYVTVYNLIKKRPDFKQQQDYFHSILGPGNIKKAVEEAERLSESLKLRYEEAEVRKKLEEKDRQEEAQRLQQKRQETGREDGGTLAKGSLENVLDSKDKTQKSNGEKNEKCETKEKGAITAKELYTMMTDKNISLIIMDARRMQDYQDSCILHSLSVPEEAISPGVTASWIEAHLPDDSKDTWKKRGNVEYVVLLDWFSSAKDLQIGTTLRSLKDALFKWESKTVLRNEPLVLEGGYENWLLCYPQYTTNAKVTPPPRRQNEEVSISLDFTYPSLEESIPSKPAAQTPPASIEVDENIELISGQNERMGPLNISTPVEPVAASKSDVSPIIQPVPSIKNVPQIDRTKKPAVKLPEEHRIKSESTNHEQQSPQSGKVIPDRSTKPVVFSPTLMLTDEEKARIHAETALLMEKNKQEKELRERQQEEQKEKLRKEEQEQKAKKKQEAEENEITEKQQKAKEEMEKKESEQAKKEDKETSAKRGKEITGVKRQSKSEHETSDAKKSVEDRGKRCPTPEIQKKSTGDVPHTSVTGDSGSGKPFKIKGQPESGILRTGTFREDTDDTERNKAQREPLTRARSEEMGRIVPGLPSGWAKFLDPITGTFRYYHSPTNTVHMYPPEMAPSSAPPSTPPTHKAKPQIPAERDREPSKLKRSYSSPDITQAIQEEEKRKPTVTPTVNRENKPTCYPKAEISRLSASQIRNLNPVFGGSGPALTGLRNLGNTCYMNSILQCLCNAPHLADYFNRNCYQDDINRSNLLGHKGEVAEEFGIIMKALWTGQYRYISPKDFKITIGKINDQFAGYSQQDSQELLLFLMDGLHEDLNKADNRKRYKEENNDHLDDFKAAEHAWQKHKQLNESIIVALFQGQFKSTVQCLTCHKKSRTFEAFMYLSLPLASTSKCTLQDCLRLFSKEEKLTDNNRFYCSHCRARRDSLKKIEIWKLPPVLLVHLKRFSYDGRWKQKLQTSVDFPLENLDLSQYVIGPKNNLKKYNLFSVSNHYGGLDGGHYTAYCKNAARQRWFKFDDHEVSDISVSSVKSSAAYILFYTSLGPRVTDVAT
The test is described as follows: pull-down; MBP-trichoplein (1 ug) and GST-USP8 (1 ug) in cell lysis buffer (20 mM Tris-HCl pH 7.5, 150 mM NaCl, 2 mM beta-glycerophosphate, 2 mM EGTA, 1% Triton X-100), 2 h at 4 °C; glutathione-sepharose 4B; immunoblot. Particulars: both partners purified. (Immunoblotting shows a protein as a band on a membrane.)

B1: MBP-trichoplein (natural protein, human, UniProt Q9BT92 1-498, looked up)
chain: MALPTLPSYWCSQQRLNQQLARQREQEARLRQQWEQNSRYFRMSDICSSKQAEWSSKTSYQRSMHAYQREKMKEEKRRSLEARREKLRQLMQEEQDLLARELEELRLSMNLQERRIREQHGKLKSAKEEQRKLIAEQLLYEHWKKNNPKLREMELDLHQKHVVNSWEMQKEEKKQQEATAEQENKRYENEYERARREALERMKAEEERRQLEDKLQAEALLQQMEELKLKEVEATKLKKEQENLLKQRWELERLEEERKQMEAFRQKAELGRFLRHQYNAQLSRRTQQIQEELEADRRILQALLEKEDESQRLHLARREQVMADVAWMKQAIEEQLQLERAREAELQMLLREEAKEMWEKREAEWARERSARDRLMSEVLTGRQQQIQEKIEQNRRAQEESLKHREQLIRNLEEVRELARREKEESEKLKSARKQELEAQVAERRLQAWEADQQEEEEEEEARRVEQLSDALLQQEAETMAEQGYRPKPYGHPKIAWN
notes: also called recombinant MBP-trichoplein; source: E. coli BL21 CodonPlus RP, purified (amylose resin)
Consider B1, for which the binding result was “binds”.
